Read-outs that look alike come from different tables or passages of the source. One block for each substance: values may come before it.
Legend:
[1] = molecular target: CRF receptors on rat anterior pituitary cells (rat)
[2] = molecular target: CRF receptors on rat anterior pituitary cells (rat); remark: listed apart in the source
[3] = molecular target: CRF receptors on rat anterior pituitary cells (rat); remark: listed apart in the source
[4] = molecular target: CRF receptors on rat anterior pituitary cells (rat); remark: listed apart in the source
[5] = molecular target: CRF receptors on rat anterior pituitary cells (rat); remark: listed apart in the source
[6] = molecular target: CRF receptors on rat anterior pituitary cells (rat); remark: listed apart in the source
[7] = molecular target: CRF receptors on rat anterior pituitary cells (rat); remark: listed apart in the source
[8] = molecular target: CRF receptors on rat anterior pituitary cells (rat); remark: listed apart in the source
[9] = molecular target: CRF receptors on rat anterior pituitary cells (rat); remark: listed apart in the source
[10] = molecular target: CRF receptors on rat anterior pituitary cells (rat); remark: listed apart in the source
[11] = molecular target: CRF receptors on rat anterior pituitary cells (rat); remark: listed apart in the source
[12] = molecular target: hCRF-RA1 (human) (UniProt P34998); experiment: radioligand binding assay
[13] = molecular target: CRF receptors on rat anterior pituitary cells (rat); remark: listed apart in the source
[14] = molecular target: CRF receptors on rat anterior pituitary cells (rat); remark: listed apart in the source
[15] = molecular target: CRF receptors on rat anterior pituitary cells (rat); remark: listed apart in the source
[16] = molecular target: CRF receptors on rat anterior pituitary cells (rat); remark: listed apart in the source
[17] = molecular target: CRF receptors on rat anterior pituitary cells (rat); remark: listed apart in the source
[18] = molecular target: CRF receptors on rat anterior pituitary cells (rat); remark: listed apart in the source
[19] = molecular target: CRF receptors on rat anterior pituitary cells (rat); remark: listed apart in the source
[20] = molecular target: CRF-RA; experiment: binding assay
[21] = molecular target: CRF receptors on rat anterior pituitary cells (rat); remark: listed apart in the source
[22] = molecular target: CRF receptors on rat anterior pituitary cells (rat); remark: listed apart in the source
[23] = molecular target: CRF receptors on rat anterior pituitary cells (rat); remark: listed apart in the source

Substance: (cyclo 30-33) D-Phe^12, CML^15, Nle^21,38, Glu^30, D-His^32, Lys^33 !-r/hCRF(12-41) (peptide)
- in vitro biopotency: inhibition of ACTH secretion (times the Standard) [1]: 20.3

Substance: (cyclo 30-33) D-Phe^12, Nle^18,21, Glu^30, Lys^33 !-Sucker Urotensin I(12-41) (peptide)
- in vitro biopotency: inhibition of ACTH secretion (times Peptide IV) [3]: 1.32

Substance: (cyclo 30-33) Ac-Thr^11, D-Phe^12, Nle^21,38, Glu^30, D-His^32, Lys^33 !-r/hCRF(11-41) (peptide)
- in vitro biopotency: inhibition of ACTH secretion (times Peptide IV) [7]: 3.08

Substance: (cyclo 30-33) D-Phe^12, Nle^21,38, Glu^30, D-Arg^32, Lys^33 !-r/hCRF(12-41) (peptide)
- in vitro biopotency: inhibition of ACTH secretion (times the Standard) [9]: 60

Substance: (cyclo 30-33) I^125 -D-Tyr^12, Glu^30, Lys^33, Nle^21,38 !-r/hCRF(12-41) (peptide)
- Kd [12]: 2 nM

Substance: (cyclo 29-33) D-Phe^12, Nle^21,38, Glu^29, D-His^32, Lys^33 -r/hCRF(12-41) (peptide)
- in vitro biopotency: inhibition of ACTH secretion (times the Standard) [15]: 26

Substance: (cyclo 30-33) D-Phe^12, Nle^21,38, Glu^30, D-2Nal^32, Lys^33 !-r/hCRF(12-41) (peptide)
- in vitro biopotency: inhibition of ACTH secretion (times the Standard) [18]: 18

Substance: (cyclo 30-33) D-Tyr^12, Nle^21,38, Glu^30, Lys^33 !-r/hCRF(12-41) (peptide)
- in vitro biopotency: inhibition of ACTH secretion (times the Standard) [19]: 5.6
- Kd [20]: 2 nM

Substance: (cyclo 28-32) D-Phe^12, Nle^21,38, Glu^28, D-Gln^30, Lys^32 !-r/hCRF(12-41) (peptide)
- in vitro biopotency: inhibition of ACTH secretion (times the Standard) [21]: 3.69

Substance: (cyclo 30-33) D-Phe^12, Nle^21,38, Glu^30, D-His^32, Lys^33 !-r/hCRF(11-41) (peptide)
- in vitro biopotency: inhibition of ACTH secretion (times Peptide IV) [23]: 0.78

Other lines, results leading:

- in vitro biopotency: inhibition of ACTH secretion (times the Standard) [2]: 10
Substance: (cyclo 30-33) D-Phe^12, Nle^21,38, Glu^30, D-Glu^32, Lys^33 !-r/hCRF(12-41) (peptide)

- in vitro biopotency: inhibition of ACTH secretion (times Peptide IV) [4]: 2.22
Substance: (cyclo 30-33) Ac-Asp^9, D-Phe^2, Nle^21,38, CML^27, Glu^30, D-His^32, Lys^33 -r/hCRF(9-41) (peptide)

- in vitro biopotency: inhibition of ACTH secretion (times Peptide IV) [5]: 1.2
Substance: (cyclo 30-33) Ac-Asp^9, D-Phe^12, Nle^21,38, CML^27, Glu^30, Lys^33 !-r/hCRF(9-41) (peptide)

- in vitro biopotency: inhibition of ACTH secretion (times Peptide IV) [6]: 1.94
Substance: (cyclo 30-33) Ac-Thr^11, D-Phe^12, CML^18,27, Nle^21,38, Glu^30, D-His^32, Lys^33 !-r/hCRF(11-41) (peptide)

- in vitro biopotency: inhibition of ACTH secretion (times the Standard) [8]: 4.5
Substance: (cyclo 30-33) D-Phe^12, CML^19, Nle^21,38, Glu^30, D-His^32, Lys^33 !-r/hCRF(12-41) (peptide)

- in vitro biopotency: inhibition of ACTH secretion (times the Standard) [10]: 13
Substance: (cyclo 30-33) Ac-Asp^9, D-Phe^12, CML^18,27, Nle^21,38, Glu^30, Lys^33 -r/hCRF(9-41) (peptide)

- in vitro biopotency: inhibition of ACTH secretion (times the Standard) [11]: 22
Substance: (cyclo 29-32) D-Leu^11, Nle^17, Glu^29, Lys^32 !-sauvagine(11-40) (peptide)

- in vitro biopotency: inhibition of ACTH secretion (times the Standard) [13]: 172
Substance: (cyclo 30-33) Ac-Asp^9, D-Phe^12, Nle^21,38, Glu^30, Lys^33 !-r/hCRF(9-41) (peptide)

- in vitro biopotency: inhibition of ACTH secretion (times the Standard) [14]: 8.3
Substance: (bicyclo 20-23, 30-33) D-Phe^12, Nle^21,38, Lys^23,33, Glu^30 !-r/hCRF(12-41) (peptide)

- in vitro biopotency: inhibition of ACTH secretion (times the Standard) [16]: 7.3
Substance: (cyclo 28-32) D-Phe^12, Nle^21,38, Glu^28, Lys^32 !-r/hCRF(12-41) (peptide)

- in vitro biopotency: inhibition of ACTH secretion (times the Standard) [17]: 53.6
Substance: (cyclo 30-33) D-Phe^12, Nle^21,38, CML^27, Glu^30, D-His^32, Lys^33 !-r/hCRF(12-41) (peptide)

- in vitro biopotency: inhibition of ACTH secretion (times Peptide IV) [22]: 1.24
Substance: (cyclo 30-33) Ac-D-Phe^12, Nle^21,38, Glu^30, D-His^32, Lys^33 !-r/hCRF(12-41) (peptide)

— patent US5777073
